From patent US6569458B1, “Process for producing small particles of biologically active molecules” (Alkermes Controlled Therapeutics, Inc., priority 1989, dated 2003) come the findings set out here.

A short description of data set [1]: Particle size analysis of fragmented particles (Microtrac small particle analyzer). In kind it is physicochemical. As to conditions: for mean particle diameter / size distribution for the effective diameters: ammonium bicarbonate buffer, ethyl acetate, ultrasonic irradiation; for mean particle diameter after five minutes sonication: atomized into liquid nitrogen, lyophilized, sonicated in ethanol 5 min; for Particle Size: sonicated 5 min. How it is done:
A 50 mg sample of the lyophilized microspheres was suspended in 5 ml of 100 percent ethanol solution and cooled in an ice water bath to 0° C. With continuous cooling, the HRP porous particles were then exposed to an ultrasonic probe (Virtis Company Inc., Virsonic 300) for different times. Samples were analyzed for particle size diameter on a Microtrac Model 7995 Small Particle Analyzer (Leeds and Northrup).
The hemoglobin particles were suspended in ethyl acetate and fragmented by subjecting them to ultrasonic irradiation with cooling by an ice bath.

The nature of data set [2]: Diameter of particles by light microscopy. It counts as physicochemical.
Method: A 250 mg sample of the enzyme horse radish peroxidase (HRP) (Sigma Chemical Co, St. Louis, Mo.) was dissolved in 10 ml of a 0.05 M phosphate buffer solution having a pH of 7.2. The solution was atomized through an ultrasonic nozzle (SonoTek Corp., Model 8700-60MS) into a stirred container of liquid nitrogen. The liquid nitrogen containing the frozen atomized spheres was next placed in a −80° C. freezer until the liquid nitrogen evaporated, about one to two hours. The frozen protein spheres were then placed in a lyophilizer (Virtis Company Inc., Model 10-MR-TR) for at least 12 hours to produce porous particles.
The sample prepared from 100 mg ammonium bicarbonate/ml was suspended in ethyl acetate and fragmented by ultrasonic irradiation.
This was ultrasonicated to form frozen particles which were lyophilized according to the procedure of Example 1.
The nature of data set [3]: Scanning electron micrographs (SEM) of particles. In kind it is physicochemical. How it is done: 125 mg bovine hemoglobin dissolved in 5 ml 0.05 M ammonium bicarbonate was formed into particles by spraying and lyophilization, according to the procedure of Example 1. […] A control solution containing only ammonium bicarbonate was also sprayed and lyophilized as described in Example 1.
The hemoglobin particles were suspended in ethyl acetate and fragmented by subjecting them to ultrasonic irradiation with cooling by an ice bath. When the resulting particles were subjected to particle size analysis using a Leeds & Northrup Microtrac small particle analyzer, the mean particle diameter was 3.7±2.8 micrometers.

A short description of data set [4]: Heme absorption, second derivative spectra of processed hemoglobin. It counts as physicochemical, bovine. As to conditions: homogenized particles stored in ethyl acetate for seven days, dissolved in 0.2 M sodium phosphate pH 7.7. As to the method:
The homogenized hemoglobin particles were stored in ethyl acetate for seven days, after which the solvent was decanted and the hemoglobin dried under vacuum at room temperature. The resulting solid was dissolved in 0.2 M sodium phosphate pH 7.7, and its heme absorption compared with that of freshly dissolved bovine hemoglobin, as well as with hemoglobin denatured in 6 M guanidinium chloride, using a Hewlett Packard diode array spectrophotometer. In order to accentuate spectral features, the second derivative of absorption with respect to wavelength was obtained for each sample.

Data set [5] in a line: Particle size analysis of fragmented particles (Microtrac small particle analyzer). In kind it is physicochemical. Conditions: ethyl acetate.
A short description of data set [6]: HRP enzyme activity, rate of oxidation of p-anisidine. In kind it is biochemical. How it is done: The activity of the HRP was determined after the lyophilization step and after the ultrasonication step. The method used to determine the enzyme activity is based upon the rate of oxidation of p-anisidine and is described in detail in The Worthington Enzyme Manual, Worthington, D. D., (ed.), Worthington Biochemical Corp., Freehold, N.J., p. 254 (1988).

A short description of data set [7]: SOD enzyme activity, inhibition of the reduction of nitro-blue tetrazolium by the superoxide anion. In kind it is biochemical. How it is done: The activity of the SOD was determined after the lyophilization step and after the ultrasonication step. The method used to determine the enzyme activity is based upon the ability of SOD to inhibit the reduction of nitro-blue tetrazolium by the superoxide anion. This assay is described in detail by Winterbourne, et al., in “The Estimation of Red Cell Superoxide Dismutase Activity,” J. Lab. Clin. Med., 85, 337 (1975). After the lyophilization step, the SOD had 94% of its original activity. After the ultrasonication step, the SOD has 91% of its original activity.

With `NCC(=O)O` [Glycine], the “mean diameter after ultrasonication” value in data set [1] ([…] solution in deionized water, ultrasonication for 4 min) came to 3.2±1.9 micrometers. For the same compound, in data set [2] (light microscopy, after lyophilization, before ultrasonication), the “mean diameter of porous particles” value worked out at 24.4±14.6 micrometers.
`C[C@]12CC[C@H]3[C@@H](CCC4=CC(=O)CC[C@@]43C)[C@@H]1CC[C@@H]2O` [testosterone, reference compound]: in data set [1] ([…] solution in 1,4 dioxane), the “mean diameter of resulting particles” value worked out at 5.4±2.9 micrometers.
As to bovine hemoglobin, in data set [1], the “mean particle diameter / size distribution for the effective diameters” value is on record as 3.7±2.8 micrometers and the “mean particle diameter after five minutes sonication” value is given as 1.8±1.3 micrometers. For the same compound, in data set [1] (sprayed into liquid argon before lyophilization), the “mean particle diameter after 5 minutes sonication” value was 3.6±2.8 micrometers. Also, in data set [3], the “length of flat irregular plates (SEM of sonicated particles)” value is reported as ~1.0 micrometer and the “thickness of flat irregular plates (SEM of sonicated particles)” value turned out to be 0.1 micrometer. Moreover, in data set [4], the “second derivative heme absorption spectrum compared with fresh hemoglobin” value is “identical”. In addition, the “size distribution for the effective diameters” value in data set [5] (after 80 sec of homogenization) came out at 7.2±3.7 micrometers. The “particle diameter size distribution” value in data set [5] (after 300 sec of homogenization) is listed as 6.6±3.7 micrometers.
Take catalase: in data set [1], the “mean particle diameter after five minutes sonication” value came to 4.5±3.3 micrometers.
For dextran, in data set [1] (20, 10, 5, 1, 2.5 and 0.5 percent solutions, ethanol, ultrasonicated five minutes), the “mean particle size as a function of solution concentration” value is given as “smallest particles are produced using 0.5 to 5% dextran solutions”.
For heparin [reference compound], the “mean particle diameter after five minutes sonication” value in data set [1] was 6.9±4.0 micrometers.
In the case of horse radish peroxidase [HRP], the “original activity retained after each step of the particle size reduction process” value in data set [6] (after the lyophilization step and after the ultrasonication step, phosphate buffer pH 7.2, ethanol) is reported as ≥ 90%. The “activity retained during the process” value in data set [6] (ammonium bicarbonate buffer, ethyl acetate, ultrasonic fragmentation (Example 13)) is listed as 90%. In data set [1] (after 100 seconds ultrasonication), the “mean particle size as a function of time of ultrasonication” value is listed as “under five”. Further, the “mean particle diameter / size distribution for the effective diameters” value in data set [1] is 2.8±2.2 micrometers. Also, the Particle Size in data set [1] (citrate/phosphate buffer pH 5.2) turned out to be 2.9 ± 2.1 µm; in data set [1] (phosphate buffer pH 7.2), 3.5 ± 2.8 µm; in data set [1] (tris buffer pH 9.1), 6.2 ± 3.7 µm. Moreover, the “diameter of the porous spheres after lyophilization” value in data set [2] (before sonication, range) was 25-35 micrometers.
With superoxide dismutase [SOD], the “original activity after the lyophilization step” value in data set [7] (after lyophilization) was 94%. In addition, in data set [7] (after ultrasonication), the “original activity after the ultrasonication step” value amounted to 91%. For the same compound, the “mean particle diameter after five minutes sonication” value in data set [1] stood at 2.7±2.1 micrometers.
